# Data published in patent publication US20160346402A1 (Bayer, published 2016).
# T1: TPP-1984, hTNFRSF12 amino acids 28-68-CT-His (human)
# T1 construct: Monomeric ectodomain with C-terminal deletion of amino acids 69 to 80; also called TTP-1984; TWEAKR (28-68)-HIS
# T1 chain: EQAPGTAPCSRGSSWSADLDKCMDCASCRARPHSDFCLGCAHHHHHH
# How the values were obtained:
# [1] = biological target: T2, TPP-2203, TWEAKR-ECD-34-68-hIgGFc-His (human); assay: ELISA: TPP-2203 (TWEAKR 34-68-Fc) coated at 1 µg/ml; biotinylated IgG at 0.08 µg/ml (open bars) and 0.3 µg/ml (solid bars); streptavidin-HRP, Amplex Red; Y = signal [Rfu]
# T2 construct: also called TWEAKR (34-68)-Fc fusion protein; N- and C-terminally truncated ectodomain
# Method: FIG. 4: Interaction of the cysteine-rich domain of TWEAKR with antibodies according to the invention and reference antibodies. What is shown is the result of an ELISA with TWEAKR (34-68)-Fc fusion protein coating (TPP-2203, 1 μg/ml) and 0.08 μg/ml (open bars) and 0.3 μ/ml (solid bars) of biotinylated IgG as soluble binding partner. Detection was carried out using streptavidin-HRP and Amplex Red substrate.
# (§1) Detection was carried out using streptavidin-HRP and Amplex Red substrate. IgGs were biotinylated using an about 2-fold molar excess of biotin-LC-NHS (Pierce; Cat. No. 21347) according to the instructions of the manufacturer and desalted using Zeba desalting columns (Pierce; Cat. No. 89889).
# [2] = biological target: T3, TPP-2202, TWEAKR-ECD-28-80-hIgGFc-His (human); assay: ELISA: TPP-2202 (TWEAKR 28-80-Fc) coated at 1 µg/ml; biotinylated IgG at 0.08 µg/ml (open bars) and 0.3 µg/ml (solid bars; legend of FIG. 3 prints 0.03); streptavidin-HRP, Amplex Red; Y = signal [Rfu]
# T3 construct: also called TWEAKR-Fc fusion protein; full-length ectodomain Fc fusion
# Method: FIG. 3: Interaction of the TWEAKR ectodomain with antibodies and reference antibodies. […] Detection was carried out using streptavidin-HRP and Amplex Red substrate.
# as §1
# [3] = biological target: T4, hTNFRSF12 amino acids a28-80-hIgG1-Fc (human); assay: ELISA: TWEAKR-Fc construct coated at 62 ng/ml, biotinylated IgG titrated from 100 nM; token + marks IC50 of 1 to […] pM
# T4 construct: wild-type TWEAKR-Fc (dimeric Fc fusion), coated on the ELISA plate; also called TPP-599; HUMAN-TNFRSF12Aaa28-80-hIgG1-Fc
# Method: (§2) To obtain dose-reaction data, the different TWEAKR-Fc muteins were coated at a low concentration (62 ng/ml) onto a 384-well Maxisorb ELISA plate, and a serial 2-fold dilution of biotinylated IgG beginning with a concentration of 100 nM was used as a soluble binding partner. Detection was carried out using streptavidin-HRP and Amplex Red.
# (§3) IgGs were biotinylated using an about 2-fold molar excess of biotin-LC-NHS (Pierce; Cat. No. 21347) according to the instructions of the manufacturer and desalted using Zeba desalting columns (Pierce; Cat. No. 89889).
# [4] = biological target: T5, hTNFRSF12 amino acids a28-80-M50A-hIgG1-Fc (human); assay: as above
# T5 construct: TWEAKR-Fc mutein, coated on the ELISA plate; also called TPP-1988
# Method: as §2, §3
# [5] = biological target: T6, hTNFRSF12 amino acids a28-80-H60K-hIgG1-Fc (human); assay: as above
# T6 construct: TWEAKR-Fc mutein, coated on the ELISA plate; also called TPP-1989
# Method: as §2, §3
# [6] = biological target: T7, hTNFRSF12 amino acids a28-80-L65Q-hIgG1-Fc (human); assay: as above
# T7 construct: TWEAKR-Fc mutein, coated on the ELISA plate
# Method: as §2, §3
# [7] = biological target: T8, hTNFRSF12 amino acids a28-80-T33Q-hIgG1-Fc (human); assay: as above
# T8 construct: TWEAKR-Fc mutein, coated on the ELISA plate; also called TPP-1986
# Method: as §2, §3
# [8] = biological target: T9, hTNFRSF12 amino acids a28-80-S40R-hIgG1-Fc (human); assay: as above
# T9 construct: TWEAKR-Fc mutein, coated on the ELISA plate; also called TPP-1987
# Method: as §2, §3
# [9] = biological target: T10, hTNFRSF12 amino acids a28-80-R56P-hIgG1-Fc (human); assay: as above
# T10 construct: TWEAKR-Fc mutein, coated on the ELISA plate; also called TPP-2683
# Method: as §2, §3
# [10] = biological target: T1, TPP-1984, hTNFRSF12 amino acids …; assay: ELISA: TPP-1984 (TWEAKR 28-68-HIS) coated at 1 µg/ml; biotinylated IgG at 0.08 µg/ml (open bars) and 0.3 µg/ml (solid bars); streptavidin-HRP, Amplex Red; Y = signal [Rfu]
# Method: FIG. 5: Interaction of TWEAKR (28-68) with antibodies according to the invention and reference antibodies. What is shown is the result of an ELISA with TWEAKR (28-68)-HIS coating (TTP-1984, 1 μg/ml) and 0.08 μg/ml (open bars) and 0.3 μ/ml (solid bars) of biotinylated IgG as soluble binding partner. Detection was carried out using streptavidin-HRP and Amplex Red substrate.
# as §1
Binder,binding result [1],binding result [2],binding result [3],binding result [4],binding result [5],binding result [6],binding result [7],binding result [8],binding result [9],binding result [10]
"P3G5(TPP-2195) (antibody, mouse IgG2a, kappa, V domains shown, Comparative antibody; murine IgG2a) VH: QVQLQQSGPEVVRPGVSVKISCKGSGYTFTDYGIHWVKQSHAKSLEWIGVISTYNGYTNYNQKFKGKATMTVDKSSSTAYMELARLTSEDSAIYYCARAYYGNLYYAMDYWGQGTSVTVSS VL: DIVLTQSPASLAVSLGQRATISCRANKSVSTSSYSYMHWYQQKPGQPPKLLIKYASNLESGVPARFSGSGSGTDFILNIHPVEEEDAATYYCQHSRELPFTFGSGTKLEIKR",binds,binds,–,–,–,–,–,–,–,–
"P4A8(TPP-1324) (antibody, human IgG1, kappa, V domains shown, human IgG1; variable domains from WO2009/140177 with a human IgG1 constant region added; biotinylated IgG in the ELISA) VH: QVQLVQSGAEVKKPGASVKVSCKGSGYTFTDYGMHWVRQAPGQGLEWMGVISTYNGYTNYNQKFKGRVTMTVDKSTSTAYMELRSLRSDDTAVYYCARAYYGNLYYAMDYWGQGTLVTVSS VL: DIVLTQSPASLAVSLGQRATISCRASKSVSTSSYSYMHWYQQKPGQPPKLLIKYASNLESGVPARFSGSGSGTDFSLNIHPMEEDDTAMYFCQHSRELPFTFGGGTKLEIKR",–,–,binds,binds,binds,binds,binds,binds,–,–
"P3G5(TPP-2195) (antibody, mouse IgG2a, kappa, V domains shown, murine IgG2a; variable domains from WO2009/140177 with a murine IgG2 constant region added; biotinylated IgG in the ELISA) VH: QVQLQQSGPEVVRPGVSVKISCKGSGYTFTDYGIHWVKQSHAKSLEWIGVISTYNGYTNYNQKFKGKATMTVDKSSSTAYMELARLTSEDSAIYYCARAYYGNLYYAMDYWGQGTSVTVSS VL: DIVLTQSPASLAVSLGQRATISCRANKSVSTSSYSYMHWYQQKPGQPPKLLIKYASNLESGVPARFSGSGSGTDFILNIHPVEEEDAATYYCQHSRELPFTFGSGTKLEIKR",–,–,binds,binds,binds,binds,binds,binds,binds,–
"TPP-2090 (antibody, human IgG1, kappa, V domains shown, Human IgG1; biotinylated (biotin-LC-NHS) when used as soluble partner in the ELISAs; also called anti-TWEAKR AK-1) VH: EVQLLESGGGLVQPGGSLRLSCAASGFTFSPYPMIWVRQAPGKGLEWVSYISPSGGSTHYADSVKGRFTISRDNSKNTLYLQMNSLRAEDTAVYYCARGGDTYFDYFDYWGQGTLVTVSS VL: DIQMTQSPSSLSASVGDRVTITCRASQSISGYLNWYQQKPGKAPKLLIYQASSLQSGVPSRFSGSGSGTDFTLTISSLQPEDFATYYCQQSYTSPFITFGQGTKVEIKR",binds,binds,–,–,–,–,–,–,–,binds
"TPP-2084 (antibody, V domains shown, human IgG1) VH: EVQLLESGGGLVQPGGSLRLSCAASGFTFSPYPMMWVRQAPGKGLEWVSYISPSGGSTHYADSVKGRFTISRDNSKNTLYLQMNSLRAEDTAVYYCARGGDTYFDYFDYWGQGTLVTVSS VL: not shown",–,–,binds,binds,binds,binds,binds,binds,binds,–
"TPP-2090 (antibody, V domains shown, human IgG1; also called anti-TWEAKR AK-1) VH: EVQLLESGGGLVQPGGSLRLSCAASGFTFSPYPMIWVRQAPGKGLEWVSYISPSGGSTHYADSVKGRFTISRDNSKNTLYLQMNSLRAEDTAVYYCARGGDTYFDYFDYWGQGTLVTVSS VL: DIQMTQSPSSLSASVGDRVTITCRASQSISGYLNWYQQKPGKAPKLLIYQASSLQSGVPSRFSGSGSGTDFTLTISSLQPEDFATYYCQQSYTSPFITFGQGTKVEIKR",–,–,binds,binds,binds,binds,binds,binds,binds,–

# Results, then the binder that gave them:
binding result [1],binding result [2],binding result [3],binding result [4],binding result [5],binding result [6],binding result [7],binding result [8],binding result [9],binding result [10],Binder
binds,binds,–,–,–,–,–,–,–,binds,"136.1(TPP-2194) (antibody, mouse IgG2a, kappa, V domains shown, Comparative antibody; murine IgG2a) VH: EVKLEESGGGLVQPGGSMKLSCVASGFTFNNYWMSWVRQSPEKGLEWLAEIRLKSDNYATHYAESVKGKFTISRDDSKSRLYLQMNNLRAENTGIYYCTGGFADYFDYWGQGTTLTVSS VL: DIVLTQSPASLTVSLGQRATISCRASQSVSTSSYSYMQWYQQRPGQPPKLLIKYATNLDSGVPARFSGSGSGTDFTLNIHPVEEEDAATYYCQHSWEIPYTFGGGTKLEIKR"
–,–,binds,binds,binds,binds,binds,binds,–,–,"136.1(TPP-2194) (antibody, mouse IgG2a, kappa, V domains shown, murine IgG2a; variable domains from WO2009/020933 with a murine IgG2 constant region added; biotinylated IgG in the ELISA) VH: EVKLEESGGGLVQPGGSMKLSCVASGFTFNNYWMSWVRQSPEKGLEWLAEIRLKSDNYATHYAESVKGKFTISRDDSKSRLYLQMNNLRAENTGIYYCTGGFADYFDYWGQGTTLTVSS VL: DIVLTQSPASLTVSLGQRATISCRASQSVSTSSYSYMQWYQQRPGQPPKLLIKYATNLDSGVPARFSGSGSGTDFTLNIHPVEEEDAATYYCQHSWEIPYTFGGGTKLEIKR"
–,–,binds,binds,binds,binds,binds,binds,–,–,"18.3.3(TPP-2193) (antibody, mouse IgG2a, kappa, V domains shown, murine IgG2a; variable domains from WO2009/020933 with a murine IgG2 constant region added; biotinylated IgG in the ELISA) VH: EVKLGESGGGLVQPGGSMKLSCVASGFPFTKYWMNWVRQSPEKGLEWVAEIRLKSDNYATHYAESAKGRFTISRDDSRSSVYLQMNNLRAEDTAIYYCSPTYADTMDYWGQGTSVTVSS VL: DIVLTQSPASLAVSLGQRATISCKASQSVSTSTYSYMQWYQQRPGQSPKLLIKYASKLDSGVPARFSGSGSGTDFTLNIHPVEEEDTATYYCQHSWELPYTFGGGTRLEIKR"
binds,binds,–,–,–,–,–,–,–,binds,"TPP-2084 (antibody, human IgG1, kappa, V domains shown, Human IgG1; biotinylated when used as soluble partner in the ELISAs) VH: EVQLLESGGGLVQPGGSLRLSCAASGFTFSPYPMMWVRQAPGKGLEWVSYISPSGGSTHYADSVKGRFTISRDNSKNTLYLQMNSLRAEDTAVYYCARGGDTYFDYFDYWGQGTLVTVSS VL: not shown"
